Laboratory results from IntAct's records for PubMed 17446860.

B1: Vacuolar-sorting protein BRO1 (Saccharomyces cerevisiae), P48582 (parent)
chain: MKPYLFDLKLKDTEKLDWKKGLSSYLKKSYGSSQWRTFYDEKATSELDHLRNNANGELAPSSLSEQNLKYYSFLEHLYFRLGSKGSRLKMDFTWYDAEYSSAQKGLKYTQHTLAFEKSCTLFNIAVIFTQIARENINEDYKNSIANLTKAFSCFEYLSENFLNSPSVDLQSENTRFLANICHAEAQELFVLKLLNDQISSKQYTLISKLSRATCNLFQKCHDFMKEIDDDVAIYGEPKWKTTVTCKLHFYKSLSAYYHGLHLEEENRVGEAIAFLDFSMQQLISSLPFKTWLVEFIDFDGFKETLEKKQKELIKDNDFIYHESVPAVVQVDSIKALDAIKSPTWEKILEPYMQDVANKCDSLYRGIIPLDVYEKESIYSEEKATLLRKQVEETETANLEYSSFIEFTNLPRLLSDLEKQFSDGNIFSNTDTQGQLMRDQIQTWCKFIQTNEFRDIEEQMNKIVFKRKQILEILSALPNDQKENVTKLKSSLVAASNSDEKLFACVKPHIVEINLLNDNGKIWKKFDEFNRNTPPQPSLLDIDDTKNDKILELLKQVKGHAEDLRTLKEERSRNLSELRDEINNDDITKLLIINKGKSDVELKDLFEVELEKFEPLSTRIEATIYKQSSMIDDIKAKLDEIFHLSNFKDKSSGEEKFLEDRKNFFDKLQEAVKSFSIFASDLPKGIEFYDSLFNMSRDLAERVRVAKQTEDSTANSPAPPLPPLDSKASVVGGPPLLPQKSAAFQSLSRQGLNLGDQFQNLKISAGSDLPQGPGIPPRTYEASPYAATPTMAAPPVPPKQSQEDMYDLRRRKAVENEERELQENPTSFYNRPSVFDENMYSKYSS
partner: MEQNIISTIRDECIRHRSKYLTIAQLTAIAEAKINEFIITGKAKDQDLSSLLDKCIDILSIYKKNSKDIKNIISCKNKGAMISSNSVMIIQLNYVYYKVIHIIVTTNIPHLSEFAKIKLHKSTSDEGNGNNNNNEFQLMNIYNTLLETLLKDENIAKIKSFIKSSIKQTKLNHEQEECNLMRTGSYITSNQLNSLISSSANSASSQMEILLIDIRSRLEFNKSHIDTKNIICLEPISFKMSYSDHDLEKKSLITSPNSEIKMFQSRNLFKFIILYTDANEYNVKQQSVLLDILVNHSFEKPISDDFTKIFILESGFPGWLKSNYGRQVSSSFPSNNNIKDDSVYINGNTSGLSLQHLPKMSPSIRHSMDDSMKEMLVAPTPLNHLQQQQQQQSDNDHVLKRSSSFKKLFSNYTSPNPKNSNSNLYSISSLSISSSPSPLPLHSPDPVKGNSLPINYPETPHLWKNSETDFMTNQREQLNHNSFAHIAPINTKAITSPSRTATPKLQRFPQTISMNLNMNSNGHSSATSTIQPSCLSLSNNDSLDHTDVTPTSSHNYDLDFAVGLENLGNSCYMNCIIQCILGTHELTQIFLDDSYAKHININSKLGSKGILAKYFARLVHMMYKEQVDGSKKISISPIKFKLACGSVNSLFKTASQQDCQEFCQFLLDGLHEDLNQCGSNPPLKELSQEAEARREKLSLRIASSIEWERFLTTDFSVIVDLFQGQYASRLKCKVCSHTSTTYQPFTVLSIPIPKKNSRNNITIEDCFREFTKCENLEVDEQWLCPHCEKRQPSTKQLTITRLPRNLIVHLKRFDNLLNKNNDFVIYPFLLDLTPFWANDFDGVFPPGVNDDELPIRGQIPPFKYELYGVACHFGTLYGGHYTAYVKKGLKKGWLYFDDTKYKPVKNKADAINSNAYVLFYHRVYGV
B2: Ubiquitin carboxyl-terminal hydrolase 4 (Saccharomyces cerevisiae), P32571 (parent)
chain: B1 partner
partner: B1 chain

Variants of: B1
Conditions: with ubp4_yeast DOA4, P32571

Row | effect of a mutation on the interaction | Variant
1 | disrupting interaction | V833A

Variants of: B1
Conditions: with ubp4_yeast DOA4, P32571
Remark: another data set of the same source

Row | effect of a mutation on the interaction | Variant
2 | disrupting interaction | F834A

Variants of: B1
Conditions: with ubp4_yeast DOA4, P32571
Remark: another data set of the same source

Row | effect of a mutation on the interaction | Variant
3 | disrupting interaction | P831A

Variants of: B1
Conditions: with ubp4_yeast DOA4, P32571
Remark: another data set of the same source

Row | effect of a mutation on the interaction | Variant
4 | disrupting interaction | S832A

Variants of: B2
Conditions: with bro1_yeast BRO1, P48582

Row | effect of a mutation on the interaction | Variant
5 | disrupting interaction | Y826A

Variants of: B2
Conditions: with bro1_yeast BRO1, P48582
Remark: another data set of the same source

Row | effect of a mutation on the interaction | Variant
6 | decreasing interaction | I825A

Variants of: B2
Conditions: with bro1_yeast BRO1, P48582
Remark: another data set of the same source

Row | effect of a mutation on the interaction | Variant
7 | disrupting interaction | P827A

Variants of: B2
Conditions: with bro1_yeast BRO1, P48582
Remark: another data set of the same source

Row | effect of a mutation on the interaction | Variant
8 | disrupting interaction | L829A

Variants of: B2
Conditions: with bro1_yeast BRO1, P48582
Remark: another data set of the same source

Row | effect of a mutation on the interaction | Variant
9 | disrupting interaction | V824A

Variants of: B2
Conditions: with bro1_yeast BRO1, P48582
Remark: another data set of the same source

Row | effect of a mutation on the interaction | Variant
10 | disrupting interaction | L830A
